Data on 3 substances can be found in publication PMC6343799.

The target in one test is SHR-1210-IgG1 (human). Briefly: SPR.
Test [1] concerns the target human PD1 expressed on CHO-K1 stable cell line (Homo sapiens) (UniProt Q15116). Briefly: flow cytometry on cells. (In general: A flow cytometer gives signals particle by particle.)
For test [2], the target named is cyno PD1 expressed on CHO-K1 stable cell line (Macaca fascicularis) (UniProt B0LAJ3). Put plainly: flow cytometry on cells.

One may read the Kd as the constant that tells how readily two partners part at equilibrium. Read a high Kd as lower affinity. In the test with SHR-1210-IgG1 (human), “His-tagged monomeric cynomolgus monkey PD1 ectodomain (domain or fragment)” came in with a Kd of 32 nM.

As to “His-tagged monomeric human PD1 ectodomain (from UniProt Q15116 25-170) (domain or fragment)”, the dissociation constant (Kd) in the test with SHR-1210-IgG1 (human) amounted to 4 nM.

The term EC50 denotes the concentration that produces a half-maximal response. A high value points to weaker potency. For the substance SHR-1210-IgG1 (antibody), the EC50 in test [1] was 2.32 nM; in test [2], 6.53 nM.
